Source: a protein production outcome set (Wang et al. 2014)

Assay: label from the status in PepcDB records

| Sequence | protein production |
| --- | --- |
| MVSRRLQDSANRLFGKAATFIENGKYDRALESLKDVDKIMKKEKDPEISFHTLFLKGYTISKAGDPEGALEFYGEALKIIEPLFSGEPGKKNYQKFISNMIEEIGSSFDELNDEERAEELLGPMEKQFEKVVRTFEELVKSDPENQEYLSGFLEIIGSMGVCYQAGQLMDQAVKLFDKKIDIYEKLFELESGETDLLGDFDEDIELYGYLFRNYGHLKEAEGNYFRAAGIYRKMIEKDPENSMAEYYLSYTYSYHGSLYSGMENLEKAERYYEEAVELMDKGYKEFPEDYAYAVSLANIHESYGVAFSNRKYLEKSIANYTKAREIYRDLIINHPSEFARNKKIAMYLDDLGDRFSKIGEFEAAELCYKDKLDVFRNLHDEDPEDLNPIFEISDTYEELGDIFAEHGETGKAKAYYEKEIEIYESLLETEPDALDYKTYMAEVQATIGKLYLDEEPEKAQKYFEDALSVLENNFELEPEMDIHYSVLKKVLNNFIQLFKNQEEHEKAAEMYSKLLAVQQRMLDLNPEEREYKEDLAVTYTNLALLHSERGDIEQEARYHRLALDIHEKILEESSDYPLFLQRFVTGIYLLGSRLKLDEESRGKESGIVKEYLELAKKAENKLYAVKPEIMEDKELIAEIAEKMGISFRENEMYEEAIEEFKRSLAIREKLHEKNPENLNYLTVLEGIFHQMGITFLAQKDLEKAKETLEKAMDLNAKLLETDPEDFNYLARSSMIFETYSSVLENMGKSEEAAKYLAKAEEINAKLGYSNE | failed |
| MVNHGYPLGRSLLSIAMAMLGALSLVFPLPLLTQDMVDSERSLPLLGDHPLEERLIDGMDEGIKKNYRGAIAIFTELILLDPSYADAYFNRGIARARIADYQGAITDHSQAITLNPQLAEAYKARGKIYWQLGEQAQAIADLEAALALFSDQENLVSQREAWEQLQTWHGNP | failed |
| MSDICVIIAAYNAEATIAQAVTSALAEAEVAEVVVVDDASSDATAEAALAASDGSGRLIVERQAQNGGPSAARNRAVALSQAPRIAILDADDFFLPGRFARLDPDLDLAADNIVFVTPEHAARLDPTNLPAAPREVEMLDAERFALGNLAQGVHRGELGFLKPVMSRAFLTRHGLRYDERMWLGEDFDLYMRMLLLGARFGLTRAVGYAAVQRGASLSGRHRTADLAALEACCRAHLEMPASPATQEAMRRHLRQVQAKLLLRQFLDRKAEAGLGAALGFALAPPARFLPIAKGVARDKIAALRPPAPPRAERFLLPVLEHHHHHH | failed |
| MDPRKVNELRAFVKMCKQDPSVLHTEEMRFLREWVESMGGKVPPATQKAKSEENTKEEKPDSKKVEEDLKADEPSSEESDLEIDKEGVIEPDTDAPQEMGDENAEITEEMMDQANDKKVAAIEALNDGELQKAIDLFTDAIKLNPRLAILYAKRASVFVKLQKPNAAIRDCDRAIEINPDSAQPYKWRGKAHRLLGHWEEAAHDLALACKLDYDEDASAMLKEVQPRAQKIAEHRRKYERKREEREIKERIERVKKAREEHERAQREEEARRQSGAQYGSFPGGFPGGMPGNFPGGMPGMGGGMPGMAGMPGLNEILSDPEVLAAMQDPEVMVAFQDVAQNPANMSKYQSNPKVMNLISKLSAKFGGQA | failed |
| MSGSPGIESVPGPELPKIEFLDRFNAKNQKFYAENDARFKDSPLLKKLLENSKLNKEKNEREIQDKYCLRGAEWGVGDCSTTGMTDEEKEKFITMLKKKTGVE | failed |
| MRDVIIALLPATIFGIINFEINAMILILTCVVSCVLFEWLYQKMMNRKVTIYDLSAVVTGLLLALNLSPDVPIWMAILGSAFAIIIVKQLFGGLGFNFMNPALGARCFLLISFAGRMTSFSYDGVTTATPLAVLKNTGDLANVNVLHMFLGNIPGTIGETSVVCILVGAAYLLIRRVIKPVIPLTYIGTFAVLIMIYALASGRGFDLTFLAAHLCGGGLMLGAFFMATDYVTSPITPAGKVVFGVILGILTFCFRIYGGSAEGVSYAIIFSNLLVPLIERWTQPKSFGEGAELAAQGDTSGTKSKMDTRSIIIATIAIMIITVIAGFALAYVYKVTKDPIAVTEQKAKEEAYKAVFGDADSFDSYSDFDADAAAKVLKDAGYNADIDEVVEAKNSDGSVLGYVVTVTSHEAYSGDLQLAMGVRTDGTTNGISFLSLSETAGLGMEADTDSFKSQFAGKKVDKFKYTKSGATVDEEIDALSGATITTNAVTNAVDAGLEYVKSINGGAADPSNALDETDASNGGDK | failed |
| QISTPVIRVWDGILALPIIGTLDSSRTQVVMESLLQEIVDTGSSIAILDISGVPAVDSLVAQHLIKTVSATRLMGAECIISGIRPEIAQTVVHLGIDLSTIITKATLASALKTA | failed |
| MQRFVCEQNIAHFQKLLETAEDEKLRRTLLGLLSSAKRELALLHSRLSGADLSPLAYRNRGGDLNSVLAQIRAGFDASDHPYMLIDAGPGLKIIDINDAYARATFTAREAIVGKPLFEIFPDNPAIDTADGVSNVYNSLRAVVETGEPHALAVQRYDMRNTEGVFVERYWQSINTPVRDAGGKLICLLHNVEDVTAEVLAN | failed |
| MEEVLPNVYLIDTLKYVEPGVISAYAVVHERAAIIDPGTAKGAEIILDEIDRSWNVEYICPTHIHIDHGGGAARLAKALDAKIIVHPRGVKHVVNPEKLWEASKAVLGEVAEIYGKPESIDESKVIAVEDEQEFDLGGERLKVFHAPGHAPHMLVYYLTNSKVLFPADAVGMCFGGVVFPLTPPPFDADAALKTLKRLKGLKVDYVAFTHYGVVEGDWPIAKSYEKVKSWLEIAKEVANANGTVEEFVGRLRKEDEDVEKLFNVLGSKPVALSFIYTSATGMLDAARRMIE | failed |
| MGLNKEAVKIGFAYVGIVVGAGFSTGQEVMQFFSPYGLWSYIGVILSGLILGFIGRQVAKIGTAFDAQNHESTLDYLFGNKFSKIVDYLLIFFLFGISVTMLAGAGSTFEESFGVPTWLGALIMVIVIYITLLMDFNKIVRALGVVTPFLIILVVIIAAYYLFNGSISFGEVNDAVPDASLVKGILYGINYGGLAFAVGFSTIVAIGGDASRRRVSGAGALFGGIVYTILLALINFALQSEFTKIEDASIPMLTLANDIHPWIGLVLSIIMLAVMYNTILGLMYSFAARFTEPYSKKYHIFIVVMVIVAFALSFVGFAGLINFLYPIMGVVGLVVVIGVLVKYYSRKRQNKKFIA | failed |
| MTESVARLRGEQLTLGYGKYTVAENLTVEIPDGHFTAIIGPNGCGKSTLLRTLSRLMTPAHGHVWLDGEHIQHYASKEVARRIGLLAQNATTLGDITVQELVARGRYPHQPLFTRWRKEDEEAVTKAMQATGITHLADQSVDTLSGGQRQRAWIAMVLAQETAIMLLDEPTTWLDISHQIDLLELLSELNREKGYTLAAVLHDLNQACRYASHLIALREGKIVAQGAPKEIVTAELIERIYGLRCMIIDDPVAGTPLVVPLGRTAPSTANS | failed |
| MFLHSVNLWNLAFYVFMVFLATLGLWDVFFGFEENKCSMSYMFEYPEYQKIELPKKLAKRYPAYELYLYGEGSYAEEHKILPLTGIPVLFLPGNAGSYKQVRSIGSIALRKAEDIDFKYHFDFFSVNFNEELVALYGGSLQKQTKFVHECIKTILKLYKGQEFAPKSVAIIGHSMGGLVARALLTLKNFKHDLINLLITQATPHVAPVMPLDRFITDFYTTVNNYWILNARHINLTTLSVAGGFRDYQVRSGLTFLPKLSHHTSALSVVSSAVPKTWVSTDHLSIVWCKQLQLTTVRAFFDLIDADTKQITQNSKKKLSVLYHHFIRHPSKHFEENPAIISDLTGTSMWVLVKVSKWTYVAYNESEKIYFTFPLENHRKIYTHVYCQSTMLDTNSWIFACINSTSMCLQGVDLSWKAELLPTIKYLTLRLQDYPSLSHLVVYVPSVRGSKFVVDCEFFKKEKRYIQLPVTHLFSFGLSSRKVVLNTNGLYYNLELLNFGQIYQAFKINVVSKCSAVKEEITSIYRLHIPWSYEDSLTIAQAPSSTEISLKLHIAQPENNTHVALFKMYTSSDCRYEVTVKTSFSQILGQVVRFHGGALPAYVVSNILLAYRGQLYSLFSTGCCLEYATMLDKEAKPYKVDPFVIIIKFLLGYKWFKELWDVLLLPELDAVILTCQSMCFPLISLILFLFGTCTAYWSGLLSSASVRLLSSLWLALKRPSELPKDIKMISPDLPFLTIVLIIVSWTTCGALAILLSYLYYVFKVVHLQASLTTFKNSQPVNPKHSRRSEKKSNHHKDSSIHHLRLSANDAEDSLRMHSTVINLLTWIVLLSMPSLIYWLKNLRYYFKLNPDPCKPLAFILIPTMAILGNTYTVSIKSSKLLKTTSQFPLPLAVGVIAFGSAHLYRLPCFVFIPLLLHALCNFM | failed |
| ETLPPRQRQRALALPLRLNPRTVALGAQWRQEAGADDAAIVQRALNWVRTEFTYTLAATKRPGLHTVDEFLFRDKAGFCEQFSSSFVVLMRASGIPARVVTGYVGGIYNNLGHYWVIRRMDAHAWAEVWLPQRGWVRVDPTAAVAPERIRDTLEDRLAQNNNDASIDSHWRLADIGDWLRHSWNNLVLGFDAKRQQQLLHSFGINHLYVSQLMMLFIAFTSVSLGLMAWWLARGERERDALLRAWHRLDRHYARLGLGRTRHEPALVW | failed |
| MVSLTMVPIDALLSKEVNAFIVQHKHASVAELMLRMPVFTVDSRWIAAQIEGWQKASQKLPLWASTENIIYPIRLSMEQCSSERTAHYKSTLMSGERLVDLTGGFGVDSFYLSKSFNEVIYIEQQEDLAEIAAHNFSTLNQNNIVVKTADSDEYLKDIAEKIDVIFLDPARRKEMRKVYKLSDCEPNVVALQSFYFSKADVILIKTSPMLDITEATRQLTGIKEIHVVSVDNECKEVLYLLEKNYSGKATYICAHDYKKQLQLFSFTIAAEQAVTLSYSAPLAYLYEPNPSILKAGGFNSITQKYEVFKLHASSHLYTSASEVSDFPGRTFKIKETVGYSKKDIQAAVPGGKANIQTRNFPDSVEAIRKKTGLKDGGNIFIFATTLHDLSKVLLICEKI | failed |
| MQWIYLCFAILFEVAGTTAMKLSDGLTKLVPSILIFVFYVVSFAFLSFALKGMEMSVAYAVWSGMGIVTITTIGFIYFGESINIIKILAILFILVGVVILNFNSTAHEAKKKEMVEERIH | failed |
| MNEQQRLASQQVNSSTKKEEKDYSKYFESVYQPPSLKEAKKRGKEEVKIERDFGLPEEFRNFGTGRKFYIRTYGCQMNEHDTEVMAGIFTALGYEPTFSTEDADVVLLNTCAIRENAENKVFGELGHLKALKRRNPDLLIGVCGCMSQEESVVNKIMQKNQHVDMVFGTHNIHRLPYILKDAMFSKETVVEVWSKEGDVIENLPKVRRGDIKAWVNIMYGCDKFCTYCIVPYTRGKERSRRPEDIIQEIRHLAANGYKEITLLGQNVNAYGKDFEDIEYGLGDLMDELRKVDIARIRFTTSHPRDFDDHLIEVLGKGGNLVEHIHLPVQSGSTEMLKIMARKYSREHYLELVRKIKEAIPNAVLTTDIIVGFPNETDEQFEETMSLYREVGFDTAFTFIYSPREGTPAAKMKDNVPMEVKKERLQRLNALVNKLAIEKNDRYKGQIVEVLVDGESKNNPEVLAGYTRTNKLVNFVAPKSLIGQLVKVKVTDAKTWSLNGELVEEPIEVELEHHHHHH | failed |
| MVLFVDFLLEWLEMMRTRVRETTYASYNSGIRQSIIPYFMDKKLTLTDIEENPKYLQDFYQHELSKGLSPNSVLRRHANIRKALQHAFHLGLIKSNPADRIERPKKQLEHHHHHH | failed |
| KVKELNLHELCAVCLEDFKPRDELGICPCKHAFHRKCLIKWLEVRKVCPLCNMPVLQLAQL | not failed |
| MVSSAIVLGLTAATVLVFTGIGLFAARGRIDSVETYISARDSAGSGTLAATVIASMMGVWILLSPAEAGAAFGGLPAVLGYAIGSAIPLLLFIPVGARIREVMPAGHSLTEFAYARFGSGMYLLVLLVSVFYMFIFLAAEMTGIAGALALVADVPLWQTSLLIGGFVLVYTAYGGLLASIVTDTVQTLVILPLLAVGFGGALLSLGGTSEFHATVVSADPTLLDPGFGPGLEFGLYVAFALLGANMLNQGVWQRVYAADGDGALRRGMGIAAVVVVPMLLLSGLFGIAAAGLGLTESGSASIAFFLVVAEAFPTWVTLAVVVLAVLLVMSSADTMFNAIASVVTADLARLLDDPDQRTLWLGGRGLTVAVALAAMFIGAQGYSVLQLFLTADLLAAGVFVPFLAGLYTERLTGPGALVSGIAGLLVGFTYFPSLRGLMAAIPGVGSMLPAPSFLIAFAGATLVSAALTAVATLLGGADADLDSLGREVRALDDPVADGGSEQ | failed |
